According to EP3505186B1, “NUCLEOPHILIC CATALYSTS FOR OXIME LINKAGE” (Takeda Pharmaceutical Company Limited, priority 2010, dated 2012):

Test: Specific activity of the interferon-gamma conjugate: biological activity by methods known in the art and total protein (Bradford)
Method: (§1) The free Interferon-gamma is removed by means of cation exchange chromatography (CEC). The reaction mixture is diluted with 20 ml Buffer A (50 mM Hepes, pH 6.5) and loaded onto a 20 ml HiPrep SPFF 16/10 column (GE Healthcare, Fairfield, CT) pre-equilibrated with Buffer A. Then the column is eluted with Buffer B (50 mM Hepes, 1 M NaCl, pH 6.5). Free interferon-gamma is eluted by washing the column with 25 % Buffer B and the conjugate at 50 % Buffer B. The conductivity of the conjugate containing fractions is subsequently raised to -190 mS/cm with Buffer C (50 mM Hepes, 5 M NaCl, pH 6.9) and loaded onto a 20 ml HiPrep Butyl FF 16/10 column (GE Healthcare, Fairfield, CT) pre-equilibrated with Buffer D (50 mM Hepes, 3 M NaCl, pH 6.9). Free PSA-reagent is washed out within 5 CV Buffer D. Subsequently, the conjugate is eluted with 100 % Buffer E (50 mM Hepes, pH 6.9). The conjugate containing fractions are concentrated by UF/DF using a 10 kD membrane made of regenerated cellulose (88 cm2, cut-off 10 kD, Millipore). The final diafiltration step is performed against histidine buffer, pH 6.9 containing 150 mM NaCl. The preparation is analytically characterized by measuring total protein (Bradford) and biological activity according to methods known in the art. For the PSA-Interferon-gamma conjugate a specific activity of > 50 % in comparison to native Interferon-gamma is determined. The conjugate is additionally analytically characterized by Size Exclusion HPLC using a Agilent 1200 HPLC system equipped with a Shodex KW 803 column under conditions as previously described (Kolarich et al, Transfusion 2006;46:1959-77). It is shown that the preparation contains no free Interferon gamma.
as §1, with “free interferon gamma” for “free Interferon-gamma”, “10 kD /” for “10 kD,”, “the PSAinterferon-gamma” for “the PSA-Interferon-gamma”, “native interferon-gamma” for “native Interferon-gamma”, “free interferon-gamma.” for “free Interferon gamma.”
The free interferon gamma is removed by means of cation exchange chromatography (CEC). […]

B1: PSA-Interferon-gamma conjugate: interferon-gamma polysialylated with 20 kD aminooxy-PSA reagent, m-toluidine as catalyst (conjugate, UniProt P01579 24-161, looked up)
Interferon gamma: QDPYVKEAENLKKYFNAGHSDVADNGTLFLGILKNWKEESDRKIMQSQIVSFYFKLFKNFKDDQSIQKSVETIKEDMNVKFFNSNKKKRDDFEKLTNYSVTDLNVQRKAIHELIQVMAELSPAAKTGKRKRSQMLFRG
modifications: polysialic acid 20 kD
notes: interferon-gamma polysialylated with 20 kD aminooxy-PSA reagent, m-toluidine as catalyst
Reference Example 27 Method 1 (oxidation, then m-toluidine and 20 kD aminooxy-PSA, 5-fold)
  specific activity in comparison to native interferon-gamma: > 50%
Reference Example 27 Method 2 (simultaneous, 20 kD aminooxy-PSA, 5-fold)
  specific activity in comparison to native interferon-gamma: > 50%
Reference Example 27 Method 3 (simultaneous, 20 kD aminooxy-PSA, 5-fold)
  specific activity in comparison to native interferon-gamma: > 50%

B2: PEG-interferon-gamma conjugate: interferon-gamma PEGylated with a linear 20 kD aminooxy PEGylation reagent, m-toluidine as catalyst (conjugate, UniProt P01579 24-161, looked up)
Interferon gamma: QDPYVKEAENLKKYFNAGHSDVADNGTLFLGILKNWKEESDRKIMQSQIVSFYFKLFKNFKDDQSIQKSVETIKEDMNVKFFNSNKKKRDDFEKLTNYSVTDLNVQRKAIHELIQVMAELSPAAKTGKRKRSQMLFRG
modifications: PEG 20 kD
notes: interferon-gamma PEGylated with a linear 20 kD aminooxy PEGylation reagent, m-toluidine as catalyst
Reference Example 41 Method 1 (oxidation, then m-toluidine and 20 kD aminooxy-PEG, 5-fold)
  specific activity in comparison to native Interferon gamma: > 50%
Reference Example 41 Method 3 (simultaneous, 20 kD aminooxy-PEG, 5-fold)
  specific activity in comparison to native interferon-gamma: > 50%
